Measurements as given in the nanobody polyreactivity screen of Harvey et al. (2022).

Assay: yeast display, Sf9 membrane polyspecificity reagent, FACS + sequencing; frameworks hold sequencing errors
Outline: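 Polyreactivity labels are assigned by the sorting gate from which each nanobody was recovered. The gates were low and high (top ~1%), set on anti-HA fluorescence for expression and streptavidin fluorescence for reagent binding. Before sorting, galactose-induced (36–48 hours) yeast display cells were stained for 1 hour at 4 °C with 10% biotinylated, detergent-solubilized Sf9 membrane reagent.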

Sequence	polyreactivity (PSR sort gate)
QVQLVESGGGLVQAGGSLRLSCAASGSIFPNNDMGWYRQAPGKERELVAAITTRGTSTYYADSVKGRFTISRDNAKNTVYLQMNSLKPEDTAVYYCAVGRRGDSAGGVAYYYWGQGTQVTVSS	low polyreactivity
QVQLVESGGGLVQAGGSLRLSCAASGLTFAGYAMGWYRQAPGKERELVASITTSGGSTHNADSVKGRFTISRDNEKNTVYVQMNSLKPEDTAVYYCAAECYPGDTELIGAFDYWGQGTQVTVSS	low polyreactivity
QVQLVESGGGLVQAGGSLRLSCAASGFIFRWYAKGWYRQAPGKERELVATITRSGGSTYYADSVKGRFTSSRDNAKNTVYLQMNSLKPEDTAVYYCNAGYSYKYYYWGQGTQVTVSS	high polyreactivity
QVQLVESGGGLVQAARSLRLSCAASGRIFNYYAMGWYRLAPGKERELVAAINSGGSTYADSVKGRFTISRDNAKNTVYLPMNSLKPEDTAVYYCAKDGQLQSGRERPSGYDHWGQGTQVTVSS	low polyreactivity
QVQLVESGGGLVQAGGSLRLSCAASGSIFFSYAMGWYRQAPGKERELVAAIDYSGGGTYYADSVKGRFTISRDNAKNTVYLQMNSLKPEDTAVYYCNSDTEVWADTFISYRALNYWGQGTQVTVSS	low polyreactivity
QVQLVESGGGLVQAGGSLRLSCAASGSTLYRYTMGWYRQAPGKERELVAAISSGGNTYYADSVKGRFTISRDNAKNTVYLQMNSLKPEDTAVYYCAAEDSVYIPYYDAYDYWGQGTQVTVSS	low polyreactivity
QVQLVESGGGLVQAGGSLRLSCAASGSTFYHNAMGWYRPAPGKERELVAAISRADVSTYYADSVKGRFTISRDNAKNTVYLQMNSLKPEDTAVYFGAAYWYGSQYKWRYDYWGQGTQVTVSS	low polyreactivity
QVQLVESGGGLVQAGGSLRLSCSASGFNFRRYAMGLYRQAPGKERELVAVITSGGSTYYADSVKGRFTISRDNAKNTVYLQMNSLKTEDTAVYYCAARYYWYSQEYVLSSWWGDYCGQGTQVTVSS	high polyreactivity
QVQLVESGGGLVQAGGSLRLSCAASGRIFGLYALGWYRPAPGKEREFVAAIRWIGGGTYYADSVKGRFTISRDHAKNTVYLQINSLKPEDTAVDSCNVVTWYYVFRPWEYDYWGQGTQVTVSS	low polyreactivity
QVQLVESGGGLVQAGGSLRLSCAASGSTFPLYAMGWYRPAPGKEREFVAAINRSTGTTYYADSVKGRFTISRDNAKNTVYLQMNSLKPEDTAVYYCAARVYYRTVLGGYYYWGQGTQVTVSS	low polyreactivity
QVQLVESGGGLVQAGGILRLSCAAYGRTFSRYGMGWYRHAPGKERQLVADITWRGDSTYYADSVKGRFTISRDNAKNTVYLQMNSLKPEDTAVYYCAVYWRSLYYGYTYDYWGQGTQVTLSS	high polyreactivity
QVQLVESGGGLVQAGGSLRLSCAASASIFWYNSMGWYRQAPGKEREFVDSISGSGTSTYADSVKGRFTISRDNAKNTVYLQMNSLKPEDTAVYYCIAYYEYSWLYSNWLYGKYDYWGQGTQVTVSS	low polyreactivity
QVQLVESGRGLVQAGGSLRLSCAASGFTFPNYAMGWYRQAPGKERELVASITRRAGSTNYADSVKGRFTISRDNAKNTVYLQMNSLKPEDTAVYYCNTVVLRYLYNYWGQGTQVTVSS	high polyreactivity
QVQLVESGGGLVQAGGSLRLSCAASGRTFRQYAMGWYRQAPGQETELVAAITWDGGSTYYADSVKGRFTISRDNAKNPVYLQMNSLKPEDTAVYYCAKLLGGTYYEYDYWGQGTQVTVSS	low polyreactivity
QFQLVESGGGLVKAGGSLRLSSAASGGTFGYYTMGWYRQAPGKERELVAAISSGGGTDYADSVKGRFTISRDNAKNTVYFQMTSLKPEDTALYYCATVSDYPWRYDYWVQGTQVTVSS	low polyreactivity
QVQLVESGGGLVQAGGSLRLSCAASGFTFFVYAMGWYRQAPGKERELVAVITSGGTTNYADSVKGRFTISRDNAKNTVYLQMNSLKPEDTAVYYCNARGEKRGYYYWGQGTQVTVSS	high polyreactivity
QVQLVESGGGLVQAGGSLRLSCAASGRTFKYYTMGWYRQAPGKERELVATISSSATSTYYADSVKGRFTISRDNAKNTVYLQMNSLKPEDTAVYYCAVERDYGWPIYIRWHFDYWGQGTQVTVSS	low polyreactivity
QDQLVESGGGLVQAGGSLSLSCAASGSTFQPYTMGWYRQAPGKERELVAAITGRGGSTYYADSVKGRFTISRDNAKNTVYLQMNSLKPEDTAVYYCAAGAYRRNKSDYYYWGQGTQVTVSS	low polyreactivity
QVQLVESGGGLVQAGGSLRLSCAASGIIFWTYTMGWYRQAPGKERELVAAISSGGSTKYADSVKGRFTISRDNAKNTVYLQMNSLKPEDTAVYYCAAYSAWYGYDYWGQGTQVTVSS	low polyreactivity
QVQLGESGGGLVQAGGSLRLSCAASGRIFISKTMGWSRQAPGKERELVAAITSSGRTYYADSVKGRFTISRDNAMNTVFFQMNSGKPEDTADYYCAADSYSGNDRRRGFDYWGQGTQVTVSS	low polyreactivity
QVQLVESGGGLVQAGGSLRLSSAASGITSYGYAMGWNRQAPGKERELVASISWTGGNTYADSVKGRFTISRDNAKNTVYLQMNSLFPEDTAVYYCNAGRSWDYWYGYDYWGQGTHVTVSS	low polyreactivity
QVQLVESGGGLVQAGGSLRLSCAASGFIFAKYAMGWYRQAPGKEMELVAAITSGGSTNYADSVKGRFTISRDNAKNTVYLQMNSLKPDDTAVYYCNRGFDWWYRYRHYDYWGQGTQVTVSS	low polyreactivity

Sequence	polyreactivity (PSR sort gate)
QVQLVESGGGLVQAGGSLRLSCAASGRNFYRYAMGRYREAPGKERELVAAIRYSGGRTYYADSVKGRFTISRDNAKNTFYLQMNSLKPEDTAVYYCASDGQWYYAPFRGGDYENDYWGQGTQVTLSS	low polyreactivity
QVQLVESGGGLVQAGGILRLSCAASGSIFPYYAMGWYRQAPGKERELVAGITSGTRTNYADSVKGRFTISRDNAKNTVYLQMNSLKPEDTAVYYCAKEAHIWGYPDYEYWGQGSQVTVSS	high polyreactivity
QVQLVESGGGLVQAGGSLRLSCAASGRIFQWNAMGWYRQAPGKERELVAAITYSGSSTNYADSVKGRFTISRDNAKNTVYLQMNSLKPEDTAVFYCNRDFYQYLSYFWHYGYWGQGTQVTVSS	low polyreactivity
QVQLVESAGGLVQAGGSLRLSCAASGSTFYPYAIGWYRQAPGKERELVAAISSGGSTYYADSVKGRFTISRDNAKNTVYLQMNSLKPEDTAVYYCAADFYYAYYWGQGTQVTVSS	low polyreactivity
QVQHVESCGGLVQAGGSLRLSCAASGSIFTYYAMGWYRQAPGKEREFVAAISRRGGSTYYADSVKGRFTISRDNAKNTVYLQMNSLKPEDTAVYYCNARYTGSSLYYWGQGTQVTVSS	high polyreactivity
QVQLVESGGGLVQAGGSLRLSCAASGSIFSFYAMGWSRQAPGKERELVASISYSGGTTFYADSVKGRFTISRDNAKNTVYLQMNSLKTEDTAVYYSAATCEPPQRGYVKDEFDYWGQVTQVTVSS	low polyreactivity
QVQLVESGGGLVQAGGSLRLSCAASGRTFYGNAMGWYSQAPGKERELVAAITDVDSTYYADSVKGRFTISRDNAKNSVYLQMNSLKPEDTAVYYCNADTSWGYPYGYWGQGTQVTVSS	low polyreactivity
QVQLVESGGGLVQAGGSLRLRCAASGSIFNSYAMGWYIQAPGKERELVAAISIRGTRTYYADSVKGRFTISRDNAKNTVYLQMNSLKPEDTAVYYCAADASYTEGMDYWGQGTQVTVLS	high polyreactivity
QVQLVESGGGLVQAGGSLRLSCAASGRTFGFNAKGRYRQAPGTERELVAAISGSGGRPYYADSVKWRFTISRDNAKNTDYLQMNSLKPEDSAVYYCAAGARRGGSGYWGQGTQVTVSS	high polyreactivity
QVQLVESGGGLVQAGGSLRLSCAASGSIFGYYDMGWYRQAPGKEREFVAASTFRGGRTYYADSVKGRFTISRDNEKNTVYIQMYSLKPEDTAVDFCAAGYHHRWGNYWGQGTQVTVSS	high polyreactivity
QVQLVESGGGLVQAGGSLRLSCAASGSIFYAYTMGWYRQAPGKERELVASITKSGGSTYYADSVKGRFTISRDNAKNTVYLQMNSLKPEDTAVYYCAAAFNRYGTTSYWYRHYYWGQGTQVTVSS	high polyreactivity
QVQLVESGGGLVQAGGSLRLSCAASGRTFGRYAMGWYRQAPGKERELVAAITRGGGSTYYADSVKGRFTISRDNAKYTVYLQMNSLKPEDTAVYYCAARNFRSPYGYDYWGQGTQVTVSS	high polyreactivity
QVQLVESGGGLVQAGGSLRLSCAASGLTIFVNAMGWYRQAPGKERELVATISGGGSTYYADSVKGRFTISRDNAKNTVYLQMNSLKPEDTAVYYCNAADVGGPWWYPYTYNYWGQGTQVTVSS	low polyreactivity
QVQLVESGGGLVQAGGSLRLSCAASGRIFIRNDMGWYRQAPGKERELVAVITRSGGRTYYADSVKGRFTISRDNAMNTVYLQMNSLKPEDTAVYYCAKRQAFKQAPYEYWGQGSQVTVSS	low polyreactivity
QVQLVESGGGLVQAGGSLRLSCAASGFTFQEYAMGWYRQAPGKERELVAAITSGTTTNYADSVKGRFTISRDNAKNTVYFQMNSLKPEDTAVYYCNVRSQSGSYRVYEYDYWGQGTQVTVSS	low polyreactivity
QVQLVESGGGLVQAGGSLRLSCAASGFTFVGYAMGWYRQAPGKERELVAAITRRGGSTYYADSVKGRFTISRDNAKNTVYLQMNSLKPEDTGVYDCNKASYRISVPRYDYWGQGTQVTVSS	high polyreactivity
QVQLVESGGGLVQAGGSLRLSCAASGIIFRGYAMGRNRHAPGKERELVARISTSGGSTYYADSVKGRFTISRDNAKNTVYLQMNSLKPEDTAVYYCAATRSFLTSWYYRSTSTRDYWGQGTQVTVSS	high polyreactivity
QVQLVESGGCLVQAGGSLRLSCAASGSIFRYYAKGWYRQAPGKERELVAAIRVSTGSTSYADSVKGRFTISRDTAKNTVYLQMNSLKPEDTAFYYCNARSRQVIAYRQHNYWGQGTQVTVSS	high polyreactivity
QVQLVESGGGLVQAGGSLRLSCAASGFTLPVYAMGWYRQAPGKERELVARITWSAGRTYYADSVKGRFTISRDNAKNTGYLQMNSLKPEDTAVYYCAAGPVSQHHSPRPHDYWGQGTQVTVSS	high polyreactivity
QVQLVESGGGLVQAGGSLLLSCAASGRTFSRNAMGWYRQAPGKERELVASIRSGGTTNYADSVKGRFTISRDNAKNTVYLQMNSLKPEVTAVYYCNAGDTFLDPCSQYLFDYWGQGTLVTVSS	low polyreactivity
QVQLVESGGGLVQAGGSLRLSCAASGSTFYRYAMGWYRQAPGKERELVATISKRGGSTYYADSVKGRFTISRDNAKYTVYLQMNSLKPEDTAVYYCNVRLEYRYYRGDYWGQGTQVTVSS	high polyreactivity
